# Assay: yeast display, Sf9 membrane polyspecificity reagent, FACS + sequencing; frameworks hold sequencing errors
# Method in brief: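 Polyreactivity labels are assigned by the sorting gate from which each nanobody was recovered. The gates were low and high (top ~1%), set on anti-HA fluorescence for expression and streptavidin fluorescence for reagent binding. Before sorting, galactose-induced (36–48 hours) yeast display cells were stained for 1 hour at 4 °C with 10% biotinylated, detergent-solubilized Sf9 membrane reagent.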
row,Sequence,polyreactivity (PSR sort gate)
1,QVQLVESGGGLVQAGGSLRLSCAASGRTFGYYAMGWYRQAPGKERELVAAITLSGGSTYYADSVKGRFTISRDNAKNTVYLQMNSLKPEDTAVYYCAAKWWHFYPYDYWGQGTQVTVSS,high polyreactivity
2,QVQLVESGGGLVQAGGSLRLSCAASGRTFGYYAMGWYRQAPGKERELVAGIRSSGGSTYYADSVKGRFTISRDNAKNTVYLQMNSLKAEDTAVYYCAARLRSYNYRYGYDYWGQGTQVTVSS,high polyreactivity
3,QVQLVESGGGLVQAGGSLRLSCAASGRTFGYYAMGWYRQAPGKERELVAPISWSGANTYYADSVKGRFTISRDNAKNTVYLQMNSLKPEDTAVYYCAAVRYYSYAYSIRYGYWGQGTQVTVSS,high polyreactivity
4,QVQLVESGGGLVQAGGSLRLSCAASGRTFGYYTMGWYRQAPGKEWELVATIRWSGGSTYADSVKGRFTISRDNAKNTVYLQLNSLKPEDTAVYYCYVDPSYYKILFNGFYYWGQGTQVTVSS,high polyreactivity
5,QVQLVESGGGLVQAGGSLRLSCAASGRTFGYYTMGWYRQSPGKERELVATISSDGTTNYADSVKGRFTISRDNAKNTVYLQMNSLKPEDTAVYYCNADFRLQYYYRIYDYWGQGTQVTVSS,low polyreactivity
6,QVQLVESGGGLVQAGGSLRLSCAASGRTFHAYVMGWYRQAPGKERELVADISSGGDTYADSVKGRFTISRDNAKNTVYLQMNSLKPEDTAVYYCAVDLIQDESRYWGQGTQVTVSS,low polyreactivity
7,QVQLVESGGGLVQAGGSLRLSCAASGRTFHRYAMGWYRQAPGKERELVATISRGGSTNYADSVKGRFTISRDNAQTTVYLQRNSLKTEETAVYYCAREYYGSWDSGGGGYWGQGTQVTVAS,high polyreactivity
8,QVQLVESGGGLVQAGGSLRLSCAASGRTFHSYAMGWYRPAPGKETELVAGISWGGTRTTYADSVTGRFTISRDNAKNTVYLQMNSLKPEDTAVYYCNAVYYALGRSPPDYGYWGQGTQVTVSS,low polyreactivity
9,QVQLVESGGGLVQAGGSLRLSCAASGRTFHWYTMGWYRLAPGKERELVAAISWSGTTTYYADSVKGRFTISRDNAKNTVYVQMNSLKPEDTAVYYCAFPTYNHNPVSAMTYYYWGQGTQVTVSS,low polyreactivity
10,QVQLVESGGGLVQAGGSLRLSCAASGRTFHYNVMGWYRQAPGKESELVAASTNTGGSTYYADSVKGRFTISRDNAKNTVYLQMNSLKPEDTAVYYCAAVIWGRRYGAYPYEYWGQGTQVTVSS,low polyreactivity
11,QVQLVESGGGLVQAGGSLRLSCAASGRTFHYYAMGWYRQAPGKERELVAAINFSGDNTYYADSVKGRFTISRDNAKNTVYLQLNSLKPEDTAVYYCAARREYARYKGYYYWGQGTQVTVSS,low polyreactivity
12,QVQLVESGGGLVQAGGSLRLSCAASGRTFHYYAMVWYRQAPWKERELVAGITAGGSTYYADSVKGRFTISRDNAKNTVYLLMNSLKPEDNSGYYCAADRSYYGYGYWGKGTQVTVSS,low polyreactivity
13,QVQLVESGGGLVQAGGSLRLSCAASGRTFIFYAMGWYRQAPGKERELVAAISSSGSGTYYADSVKGRFTISRDNAKNTVYFQMNSLKPEDTAVYYCAADVVNSRRRPKYGYWGQGTQVTVSS,low polyreactivity
14,QVQLVESGGGLVQAGGSLRLSCAASGRTFIFYAMGWYRQAPGKERELVAAITYSGTSTYYADSVKGRFTISRDNAKNTVYLQMNSLKPEDTAVYYCASRPTPYRDDADEYWGQGTQVTVSS,low polyreactivity
15,QVQLVESGGGLVQAGGSLRLSCAASGRTFIGNAMGWYRQAPGKERELVAGIDSDGSTNYADSVKGRFTISRDNAKNTVYLLMNSLKPEDTAVYYCAAVQGYRFYEYYYWGQGTQVTVSW,low polyreactivity
16,QVQLVESGGGLVQAGGSLRLSCAASGRTFIGNAMGWYRQAPGKERELVAGISYRGGSTYYADSVKGRFTISRDNAKNTVYLQMNSLKPEDTAVYYCAAPGRGGYYYWGQGTQVTVSS,high polyreactivity
17,QVQLVESGGGLVQAGGSLRLSCAASGRTFIGYAMGWYIQAPGKERELVAAISPGGSTKYADSVKGRFTISRDNAKNTVYLQMNILKPEDTAVYYCNAYSQSWNFYGDGDYWGQGTQVTVSS,low polyreactivity
18,QVQLVESGGGLVQAGGSLRLSCAASGRTFIGYAMGWYRPAPGKERELVAGISWSGGSTYYADSVKGRFTISRDNAKNPVSLQMNSLKPEDTAVYYCAARGRWSTEYGYWGQGTQVTVSS,low polyreactivity
19,QVQLVESGGGLVQAGGSLRLSCAASGRTFIHYAMGWSRQAPGKERELVAAISRRGGSTYYADSVKGRFTISRDNAKNTVYLQMNSLKPEDTAVYYCAARLLGITGRTDSGAEGDYWGQGTQVTVSS,high polyreactivity
20,QVQLVESGGGLVQAGGSLRLSCAASGRTFIINTMGWSRQATGTERELVAAISKNGATTNYADSVKGRFTISRDNAKNTVYLQMNSLKPEDTAVYYCNARYSGYLRLDYWGQGTQVTVSS,low polyreactivity
21,QVQLVESGGGLVQAGGSLRLSCAASGRTFIINTMGWYRQAPGKERELVAAISKNGATTNYADSVKGRFTISRDNAKNTVYLQMNSLKPEDTAVYYCAKKASYWWGYEYWGQGTQVTVSS,low polyreactivity

row,Sequence,polyreactivity (PSR sort gate)
1,QVQLVESGGGLVQAGGSLRLSCAASGRTFIPYAMAWYRQAPGKEMELVAAISTTAGTTYYADSVKGRFTISRDNAKNTVYLQMNSLKPEDTAVYYCAAEGYGSFFVAMDYWGQGTQVTVSS,high polyreactivity
2,QVQLVESGGGLVQAGGSLRLSCAASGRTFIRYTMGWYRPAPGKERELVAAITSTGRTYYADSVKGRFTISRDNAKNTVYLQMNSLKPEDTAVYYCAAKQSWEGYDYWGQGTQVTVSS,low polyreactivity
3,QVQLVESGGGLVQAGGSLRLSCAASGRTFISNAMGWYRQAPGKERELVATINSGGSTNYADSVKGRFTISRDNAKNTVYLQMNSLKPEDTAVYYCARRVRYKHYDYWGQGTQVTVSS,high polyreactivity
4,QVQLVESGGGLVQAGGSLRLSCAASGRTFISNAMGWYRQAPVKERELVAAISRSGGSTYYADSVKGRFTISRDNAKNTVYLQMNSLKPEDTAVYYCAATGKQWRTSYDYWGQGTQVTVSS,high polyreactivity
5,QVQLVESGGGLVQAGGSLRLSCAASGRTFISYAMGWYRQAPGKERELVAAISWSGGRTSYADSVKGRFTISRDNAKNTVYLHMNSLKPEDTAVYYCNAQYNSWFAIKDYDYWGQGTQVTVSS,low polyreactivity
6,QVQLVESGGGLVQAGGSLRLSCAASGRTFISYAMGWYRQAPGKESELVAAISSSGGSTYYADSVKGRFTISRDNAKNTVYLQMNSLKPEDTEVYYCNAAKVRRDPAWRLLDYWGQGTQVTVSS,low polyreactivity
7,QVQLVESGGGLVQAGGSLRLSCAASGRTFITYAMGWYRQAPGKERELVAAISSGGGRTYYADSVKGRFTISRDNAKNTVYLQMNSLKPEDTAVYYCAALYVYPLTYKPSRYPYDYWGQGTQVTVSS,high polyreactivity
8,QVQLVESGGGLVQAGGSLRLSCAASGRTFIVNAMAWYRQAPGKERELVAAISSGGSTNYADSVKGRFTISRDNAKNTVYLQMNSLKPEDTAVYYCASRLRGPRSYWSWYGYWGQGTQVTVSS,high polyreactivity
9,QVQLVESGGGLVQAGGSLRLSCAASGRTFIVNAMGWYRQAPGKVRELVAAITKGARTYYADSVKGRFTISRDNAKNTVYLQRNSLKPEDTAVYYCNATRLGGNGTRHYYWGQGTQVTVSS,high polyreactivity
10,QVQLVESGGGLVQAGGSLRLSCAASGRTFIVYAMGWYRQAPGTERELVAGITRGSTTYADSVKGRFTISRDNATNTVYLQMNSLKPEDTAVYYCAARSSRRGPISEGDYWGQGTHVTVSS,high polyreactivity
11,QVQLVESGGGLVQAGGSLRLSCAASGRTFKFYAMGWYRQAPGKERELVATITSGGSTYYADSVKGRFTISRDNAKNTVYLQMNSLIPEDTAVSYCNAAKTYPDVYEYDYWGQGTQVTVSS,high polyreactivity
12,QVQLVESGGGLVQAGGSLRLSCAASGRTFKGYTMGWYRQAPGKERELVAAITRSGGGTYYADSVKGRFTISRDNAKNTVYLQMNSLKPEDTAVYYCAARRPGYYYPSKFDYWGQGTQVTVSS,high polyreactivity
13,QVQLVESGGGLVQAGGSLRLSCAASGRTFKGYTMGWYRQAPGKERELVAVITWSGDRTYYADSVKGRFTISRDNAKNTVYLQMNSLKPEDTAVYYCAARGYSLRTRGDYWGQGTQVTVSS,high polyreactivity
14,QVQLVESGGGLVQAGGSLRLSCAASGRTFKIYAMGWYRQAPGKERELVAAITWNGDSTHYADSVKGRFTISRDNAKNTVYLQMNSLKPEDTAVYYCNRVGYQSMNYWGQGTQVTVSS,low polyreactivity
15,QVQLVESGGGLVQAGGSLRLSCAASGRTFKKNAMGWYRQAPGKERELVAAITGSGGSTYYADSVKGRFTISRDNAKKTVYLQMNSLKPEDTAVYYCAAYAYGVWHSQDCGNYWGQGTQVTVSS,low polyreactivity
16,QVQLVESGGGLVQAGGSLRLSCAASGRTFKKYAMGWYRPAPRKERELVAAITGSGGSTYYADSVKGRFTISRDNAKNTVYLQMNSLKPEDTAVYYCAAYAYGVWHSQDGGNYWGQGTQVTVSS,low polyreactivity
17,QVQLVESGGGLVQAGGSLRLSCAASGRTFKLNAMGWYRKAPGKERELVAGITRTGDSTYYADSVKGRFTISRDNAKNTVYLQMNSLKPEDTAVYYCAAAEWYSMDYWGQGTQVTVSS,low polyreactivity
18,QVQLVESGGGLVQAGGSLRLSCAASGRTFKLNAMGWYRQAPGKERELVAAISRNGGSTYYADSVKGRFTISRDNAKNTVYLQMNSLKPEDTAVYYCAAVRHGVSLAGYYWGQGTQVTVSS,high polyreactivity
19,QVQLVESGGGLVQAGGSLRLSCAASGRTFKLYGMGWYRQAPVKEREFVAAITQGGGSTFYADSVKGRFTISRDNSKNTVYLQMNSLKPEDTAVYYCAARTQIFSRYRGFYSWGQGTQVTVSS,high polyreactivity
20,QVQLVESGGGLVQAGGSLRLSCAASGRTFKRNGMGWYRQAPGKERELVAAIRNTGSTKYADSVKGRFTISRDNAKNTVYLQMNSLKPEDTAVYYCNARVYEAQTYYYWGQGTQVTVSS,high polyreactivity
